Reference: publication PMC4674680 (2015)

B1: iBox 23mer synthetic peptide (peptide)
peptide: AEDWTAALLNRGRSRQPLVLGDW
B2: iBox24C (peptide)
chain: SRQPLVLGDNCFADLVHNWMELPE
modifications: synthetic peptide; taken as the C-terminal 24 residues (paper numbering 180-203) of the 38-aa iBox; 4XBR position = Inka1 paper number minus 153; exact limits are only in Fig. 1d
B3: GST-iBox (Inka1 166–203) (domain or fragment)
chain: EAEDWTAALLNRGRSRQPLVLGDNCFADLVHNWMELPE
modifications: GST carrier left out. Limits 166-203 are the paper's, taken from the 4XBR fusion: Flag/SGS 1-12, iBox 13-50, EF linker 51-52, PAK4 278-591 from 53 (12+38+2+314=366). Entity position = paper number - 153 (F191=F38, L194=L41, V195=V42, P(0)=P30). The paper's Inka1 numbering may differ from UniProt Q96EL1 (paper's C-terminus is 285, entry is 287 aa).
B4: iBox-C24 (peptide)
chain: VSRFAALMSCRSRQPIICNDVSYL
modifications: synthetic peptide; exact limits are only in Fig. 1d; taken as the last 24 residues because the text gives a 24mer of iBox-C (C-terminal 22 aa of Inka1)

biological target: 6His–PAK4cat (PAK4 286–591) (human, UniProt O96013 286-591); assay: kinase activity inhibition (GST-Raf13 phosphorylation)
Sequence (O96013 286-591): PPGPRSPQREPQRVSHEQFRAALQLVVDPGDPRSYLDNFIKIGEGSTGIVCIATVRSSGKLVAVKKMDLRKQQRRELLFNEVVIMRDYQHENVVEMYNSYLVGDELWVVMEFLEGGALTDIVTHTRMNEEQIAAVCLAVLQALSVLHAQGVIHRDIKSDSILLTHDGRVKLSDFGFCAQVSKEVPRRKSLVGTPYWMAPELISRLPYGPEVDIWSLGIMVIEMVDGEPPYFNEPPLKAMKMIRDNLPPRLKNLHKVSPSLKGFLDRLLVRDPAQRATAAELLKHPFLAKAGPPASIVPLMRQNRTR

IC50	Binder
229 nM	B1
382 nM	B2
36 nM	B3
300 nM	B4
